Results from patent US20250076311A1 (Chugai, published 2025).

Columns and labels:
[1] = biological target: T1, human FcγRIIb extracellular domain, His-tagged (human, UniProt P31994 43-217); assay: SPR (Biacore), 25C, FcgR bound per antibody captured
T1 construct: also called human FcgRIIb
T1 sequence: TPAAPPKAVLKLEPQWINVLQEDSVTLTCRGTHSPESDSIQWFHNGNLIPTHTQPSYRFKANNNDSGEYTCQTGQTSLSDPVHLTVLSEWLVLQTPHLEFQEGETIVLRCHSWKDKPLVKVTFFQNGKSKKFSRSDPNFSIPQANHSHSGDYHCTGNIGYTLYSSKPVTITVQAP

[2] = biological target: T2, human FcγRIIIaV extracellular domain, His-tagged (human, UniProt P08637 17-208); assay: as above
T2 construct: also called human FcgRIIIaV
T2 sequence (P08637 17-208 F176V): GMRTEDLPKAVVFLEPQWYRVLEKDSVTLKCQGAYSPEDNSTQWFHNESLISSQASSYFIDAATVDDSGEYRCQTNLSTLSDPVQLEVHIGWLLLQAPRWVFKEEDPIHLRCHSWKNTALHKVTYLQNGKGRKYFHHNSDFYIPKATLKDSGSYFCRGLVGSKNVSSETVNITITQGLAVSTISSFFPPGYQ

[3] = biological target: T3, cynomolgus monkey FcγRIIIaS extracellular domain with C-terminal His-tag (cynomolgus monkey, UniProt A3RFZ7 21-206 (rhesus entry)); assay: SPR (BIACORE); KD of SG1 / KD of variant
T3 construct: also called cyno FcgRIIIaS; cynoFcγRIIIaS; not shown: His-tag added to the C-terminus
Experimental: The kinetic analysis of interactions between these antibodies and FcγR was carried out using BIACORE® T200 or BIACORE® 4000 (GE Healthcare). HBS-EP+ (GE Healthcare) was used as the running buffer, and the measurement temperature was set to 25° C. […] After the measurement, the antibody captured on the chip was washed off by allowing reaction with 10 mM glycine-HCl, pH1.5 and 25 mM NaOH so that the chip was regenerated and used repeatedly. The sensorgrams obtained as measurement results were analyzed by the 1:1 Langmuir binding model using the BIACORE® Evaluation Software to calculate the binding rate constant ka (L/mol/s) and dissociation rate constant kd (1/s), and the dissociation constant KD (mol/L) was calculated from these values. […] Regarding such interactions, KD values were calculated using the following 1:1 binding model described in BIACORE® T100 Software Handbook BR1006-48 Edition AE.
Target sequence in this assay (A3RFZ7 21-206): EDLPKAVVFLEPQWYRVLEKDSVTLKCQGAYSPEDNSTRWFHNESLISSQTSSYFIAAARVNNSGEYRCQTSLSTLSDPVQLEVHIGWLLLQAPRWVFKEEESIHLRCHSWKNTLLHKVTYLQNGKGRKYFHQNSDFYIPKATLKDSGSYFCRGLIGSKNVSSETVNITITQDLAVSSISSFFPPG

[4] = biological target: T3, cynomolgus monkey FcγRIIIaS …; assay: SPR (BIACORE), antibody captured, FcgR analyte
T3 sequence (A3RFZ7 21-206): as above

[5] = biological target: T4, human FcγRIIaR extracellular domain with C-terminal His-tag (human, UniProt P12318 34-217); assay: SPR (BIACORE), antibody captured, FcgR analyte
T4 construct: also called human FcgRIIaR; FcγRIIa type R; not shown: His-tag added to the C-terminus
T4 chain: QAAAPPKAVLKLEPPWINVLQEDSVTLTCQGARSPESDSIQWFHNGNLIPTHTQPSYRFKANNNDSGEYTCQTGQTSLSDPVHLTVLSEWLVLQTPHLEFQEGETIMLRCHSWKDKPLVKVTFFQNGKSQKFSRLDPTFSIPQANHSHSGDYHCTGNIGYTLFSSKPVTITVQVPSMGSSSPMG

[6] = biological target: T5, cynomolgus monkey FcγRIIb extracellular domain with C-terminal His-tag (cynomolgus monkey); assay: SPR Biacore, antibody captured, FcgR analyte
T5 construct: also called cyno FcgRIIb; cynoFcγRIIb; not shown: His-tag added to C-terminus
T5 chain: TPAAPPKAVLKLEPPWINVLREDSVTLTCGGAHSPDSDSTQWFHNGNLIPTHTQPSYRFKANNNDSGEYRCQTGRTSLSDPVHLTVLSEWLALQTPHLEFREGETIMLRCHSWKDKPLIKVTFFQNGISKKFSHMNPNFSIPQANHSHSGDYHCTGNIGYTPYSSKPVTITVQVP

[7] = biological target: T6, cynomolgus monkey FcγRIIIaS extracellular domain with C-terminal His-tag (cynomolgus monkey, UniProt A3RFZ7 21-206 (rhesus entry)); assay: SPR Biacore, antibody captured, FcgR analyte
T6 construct: also called cyno FcgRIIIaS; cynoFcγRIIIaS; not shown: His-tag added to C-terminus
Target sequence in this assay (A3RFZ7 21-206): as the sequence (A3RFZ7 21-206) above

[8] = biological target: T7, cynomolgus monkey FcγRIIa3 extracellular domain with C-terminal His-tag (cynomolgus monkey); assay: SPR Biacore, antibody captured, FcgR analyte
T7 construct: also called cyno FcgRIIa3; cynoFcγRIIa3; not shown: His-tag added to C-terminus
T7 chain: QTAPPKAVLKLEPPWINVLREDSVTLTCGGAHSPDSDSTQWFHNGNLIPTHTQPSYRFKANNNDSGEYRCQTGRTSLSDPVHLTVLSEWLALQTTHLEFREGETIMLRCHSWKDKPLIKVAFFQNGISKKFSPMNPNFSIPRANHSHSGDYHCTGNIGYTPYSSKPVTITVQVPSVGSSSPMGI

[9] = biological target: T8, human FcγRIIb extracellular domain with C-terminal His-tag (human, UniProt P31994 43-217); assay: SPR Biacore, antibody captured, FcgR analyte
T8 construct: also called human FcgRIIb; not shown: His-tag added to C-terminus
T8 sequence: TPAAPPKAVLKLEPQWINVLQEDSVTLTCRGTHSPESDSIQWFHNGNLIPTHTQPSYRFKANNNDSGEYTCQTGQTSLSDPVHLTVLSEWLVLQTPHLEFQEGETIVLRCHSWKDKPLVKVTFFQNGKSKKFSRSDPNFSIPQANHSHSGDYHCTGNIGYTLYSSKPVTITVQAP

[10] = biological target: T9, cynomolgus monkey FcγRIIa3 extracellular domain with C-terminal His-tag (cynomolgus monkey); assay: SPR (BIACORE), antibody captured, FcgR analyte
T9 construct: also called cyno FcgRIIa3; cynoFcγRIIa3; not shown: His-tag added to the C-terminus
T9 chain: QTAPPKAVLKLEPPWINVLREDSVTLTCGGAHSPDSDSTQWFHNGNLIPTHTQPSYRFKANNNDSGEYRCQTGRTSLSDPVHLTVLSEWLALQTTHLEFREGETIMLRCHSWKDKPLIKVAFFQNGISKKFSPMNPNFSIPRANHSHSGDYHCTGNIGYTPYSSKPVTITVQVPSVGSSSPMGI

Binder | Kd [4] | Kd [5] | KD fold (SG1 = 1) [6] | KD fold (SG1 = 1) [7] | further results
GpH7-B3 V266F / GpL16-k0 (antibody, human IgG1, kappa, also called B3 variant V266F) heavy: not shown light: DIVMTQSPLSLPVTPGEPASISCQASESLVHSNRNTYLHWYLQKPGQSPQLLIYKVSNRFSGVPDRFSGSGSGTDFTLKISRVEAEDVGVYYCSQNTHVPPTFGQGTKVEIERTVAAPSVFIFPPSDEQLKSGTASVVCLLNNFYPREAKVQWKVDNALQSGNSQESVTEQDSKDSTYSLSSTLTLSKADYEKHKVYACEVTHQGLSSPVTKSFNRGEC | – | – | – | – | Binding to human FcgRs (parent B3 = 100) [1]: 88; Binding to human FcgRs (parent B3 = 100) [2]: 2
M103205H795-MY049/M103202L889-SK1 (antibody, human IgG1, kappa, name in EU numbering, Fc variant of MS1032LO06-SG1; positions in EU numbering) heavy: not shown light: DIVMTQSPATLSLSPGERATLSCTSSQSVYHANWLSWFQQKPGQPPKLLIYWASTLAYGVPSRFSGSGSGTDFTLTISSLQPEDAATYYCAGGYGGGRYAFGQGTKVEIKRTVAAPSVFIFPPSDEQLKSGTASVVCLLNNFYPREAKVQWKVDNALQSGNSQESVTEQDSKDSTYSLSSTLTLSKADYEKHKVYACEVTHQGLSSPVTKSFNRGEC | 4.5 µM | 7.8 µM | – | – | KD fold (SG1 = 1) [3]: 0.08 fold
M103205H795-MY200/M103202L889-SK1 (antibody, Fc variant of MS1032LO06-SG1; EU numbering; printed S2369V is probably S239V) heavy: QVTLKESGPVLVKPTETLTLTCTVSGIDLSHDDISWVRQAPGKGLEWVGIISYAGSTYYASWAKGRLTISKDTSKNQVVLTMTNMDPVDTATYYCARGVPAYSHGGDLWGQGTLVTVSSASTKGPSVFPLAPSSKSTSGGTAALGCLVKDYFPEPVTVSWNSGALTSGVHTFPAVLQSSGLYSLSSVVTVPSSSLGTQTYICNVNHKPSNTKVDKKVEPKSCDKTHTCPPCPAPELLNGPVVFLFPPKPKDTLMISRTPEVTCVVVDVSEEDPEVKFNWYVDGVEVHNAKTKPREEQYNSTYRVVSVLTVLHQDWLNGKEYKCKVSNKALPKPIEKTISKAKGQPREPQVYTLPPSREEMTKNQVSLTCLVKGFYPSDIAVEWESNGQPENNYKTTPPVLDSDGSFFLYSKLTVDKSRWQQGNVFSCSVMHEALHNHYTQKSLSLSP light: DIVMTQSPATLSLSPGERATLSCTSSQSVYHANWLSWFQQKPGQPPKLLIYWASTLAYGVPSRFSGSGSGTDFTLTISSLQPEDAATYYCAGGYGGGRYAFGQGTKVEIKRTVAAPSVFIFPPSDEQLKSGTASVVCLLNNFYPREAKVQWKVDNALQSGNSQESVTEQDSKDSTYSLSSTLTLSKADYEKHKVYACEVTHQGLSSPVTKSFNRGEC | 4.4 µM | 2.7 µM | – | – | –
M103205H795-MY204/M103202L889-SK1 (antibody, human IgG1, kappa, name in EU numbering, substitutions in EU numbering, introduced into M103205H795-SG1) heavy: QVTLKESGPVLVKPTETLTLTCTVSGIDLSHDDISWVRQAPGKGLEWVGIISYAGSTYYASWAKGRLTISKDTSKNQVVLTMTNMDPVDTATYYCARGVPAYSHGGDLWGQGTLVTVSSASTKGPSVFPLAPSSKSTSGGTAALGCLVKDYFPEPVTVSWNSGALTSGVHTFPAVLQSSGLYSLSSVVTVPSSSLGTQTYICNVNHKPSNTKVDKKVEPKSCDKTHTCPPCPAPELLNGPVVFLFPPKPKDTLMISRTPEVTCVVVDVSEEDPEVKFNWYVDGVEVHNAKTKPREELYNSTYRVVSVLTVLHQDWLNGKEYKCKVSNKALPKPIEKTISKAKGQPREPQVYTLPPSREEMTKNQVSLTCLVKGFYPSDIAVEWESNGQPENNYKTTPPVLDSDGSFFLYSKLTVDKSRWQQGNVFSCSVMHEALHNHYTQKSLSLSP light: DIVMTQSPATLSLSPGERATLSCTSSQSVYHANWLSWFQQKPGQPPKLLIYWASTLAYGVPSRFSGSGSGTDFTLTISSLQPEDAATYYCAGGYGGGRYAFGQGTKVEIKRTVAAPSVFIFPPSDEQLKSGTASVVCLLNNFYPREAKVQWKVDNALQSGNSQESVTEQDSKDSTYSLSSTLTLSKADYEKHKVYACEVTHQGLSSPVTKSFNRGEC | – | – | 2.2 fold | 0.1 fold | KD fold (SG1 = 1) [8]: 3.3 fold
M103205H795-MY288/M103202L889-SK1 (antibody, human IgG1, kappa, name in EU numbering, substitutions in EU numbering, introduced into M103205H795-SG1) heavy: not shown light: DIVMTQSPATLSLSPGERATLSCTSSQSVYHANWLSWFQQKPGQPPKLLIYWASTLAYGVPSRFSGSGSGTDFTLTISSLQPEDAATYYCAGGYGGGRYAFGQGTKVEIKRTVAAPSVFIFPPSDEQLKSGTASVVCLLNNFYPREAKVQWKVDNALQSGNSQESVTEQDSKDSTYSLSSTLTLSKADYEKHKVYACEVTHQGLSSPVTKSFNRGEC | – | – | 1.5 fold | 0.03 fold | KD fold (SG1 = 1) [9]: 0.5 fold; KD fold (SG1 = 1) [8]: 1.5 fold
M103205H795-MY440/M103202L889-SK1 (antibody, human IgG1, kappa, name in EU numbering, Fc variant of MS1032LO06-SG1; positions in EU numbering) heavy: QVTLKESGPVLVKPTETLTLTCTVSGIDLSHDDISWVRQAPGKGLEWVGIISYAGSTYYASWAKGRLTISKDTSKNQVVLTMTNMDPVDTATYYCARGVPAYSHGGDLWGQGTLVTVSSASTKGPSVFPLAPSSKSTSGGTAALGCLVKDYFPEPVTVSWNSGALTSGVHTFPAVLQSSGLYSLSSVVTVPSSSLGTQTYICNVNHKPSNTKVDKKVEPKSCDKTHTCPPCPAPELWNGPSVFLFPPKPKDTLMISRTPEVTCVVVDVSDEDPEVKFNWYVDGVEVHNAKTKPREELYNSTYRVVSVLTVLHQDWLNGKEYKCKVSNKALPKPIEKTISKAKGQPREPQVYTLPPSREEMTKNQVSLTCLVKGFYPSDIAVEWESNGQPENNYKTTPPVLDSDGSFFLYSKLTVDKSRWQQGNVFSCSVMHEALHNHYTQKSLSLSP light: DIVMTQSPATLSLSPGERATLSCTSSQSVYHANWLSWFQQKPGQPPKLLIYWASTLAYGVPSRFSGSGSGTDFTLTISSLQPEDAATYYCAGGYGGGRYAFGQGTKVEIKRTVAAPSVFIFPPSDEQLKSGTASVVCLLNNFYPREAKVQWKVDNALQSGNSQESVTEQDSKDSTYSLSSTLTLSKADYEKHKVYACEVTHQGLSSPVTKSFNRGEC | 9.3 µM | 1.1 µM | – | – | Kd [10]: 4.8 µM
M103205H795-MY350/M103202L889-SK1 (antibody, human IgG1, kappa, name in EU numbering, substitutions in EU numbering, introduced into M103205H795-SG1) heavy: QVTLKESGPVLVKPTETLTLTCTVSGIDLSHDDISWVRQAPGKGLEWVGIISYAGSTYYASWAKGRLTISKDTSKNQVVLTMTNMDPVDTATYYCARGVPAYSHGGDLWGQGTLVTVSSASTKGPSVFPLAPSSKSTSGGTAALGCLVKDYFPEPVTVSWNSGALTSGVHTFPAVLQSSGLYSLSSVVTVPSSSLGTQTYICNVNHKPSNTKVDKKVEPKSCDKTHTCPPCPAPELWNGPSVFLFPPKPKDTLMISRTPEVTCVVVDVSEEDPEVKFNWYVDGVEVHNAKTKPREEQYNSTYRVVSVLTVLHQDWLNGKEYKCKVSNKALPKPIEKTISKAKGQPREPQVYTLPPSREEMTKNQVSLTCLVKGFYPSDIAVEWESNGQPENNYKTTPMVLDSDGSFFLYSKLTVDKSRWQQGNVFSCSVMHEALHNHYTQKSLSLSP light: DIVMTQSPATLSLSPGERATLSCTSSQSVYHANWLSWFQQKPGQPPKLLIYWASTLAYGVPSRFSGSGSGTDFTLTISSLQPEDAATYYCAGGYGGGRYAFGQGTKVEIKRTVAAPSVFIFPPSDEQLKSGTASVVCLLNNFYPREAKVQWKVDNALQSGNSQESVTEQDSKDSTYSLSSTLTLSKADYEKHKVYACEVTHQGLSSPVTKSFNRGEC | – | – | 3.2 fold | 0.05 fold | –
